Data set [1] has as its system K562 cells engineered to express mesothelin. In words: Antigen-triggered cytokine secretion. It counts as cell-based, human. Conditions: Example 14, T cells:targets 2:1, 24 hours, ELISA. The protocol:
Cytokine production of the huMeso-KIRS2-expressing CAR cells was also assessed. Primary human T cells were simulated, transduced with the huMes-KIRS2 and expanded as previously described. Following expansion, the transduced T cells were mixed with K562 (mesothelin-negative cells, empty bars) or K562 cells engineered to express mesothelin (black bars) at a ratio of 2:1. Cytokine concentrations (IFNγ and IL-2) were determined in supernatants following 24 hours of stimulation by ELISA for the indicated cytokines.
Background: An ELISA detects its analyte on a solid surface through an enzyme-linked reagent.

The test system of data set [2] is K562-meso-HLACw. The data set is described as follows: KIR2DL3 suppression of KIR-CAR cytotoxicity, 51Cr release against K562-meso-HLACw. It counts as cell-based, human. Conditions: coexpressed with SS1-KIRS2/DAP12, HLA-Cw on the target cells. The protocol:
K562 cells (K562) or K562 cells expressing mesothelin (K562-meso) were transduced with the HLA-Cw3 allele followed by fluorescence activated cell sorting to obtain K562 cells expressing HLA-Cw with (K562-meso-HLACw) or without (K562-HLACw) expression of mesothelin. HLA-Cw3 expression was assessed by flow cytometry using an APC-conjugated monoclonal antibody that recognizes HLA-A, B and C alleles (clone W6/32).
Primary human T cells were stimulated with CD3/28 microbeads followed by lentiviral transduction with SS1-KIRS2 and DAP12 (SS1-KIRS2) or mock transduced (NTD) in combination with wild-type KIR2DL3. The T cells were expanded until the end of log-phase growth. The surface expression of the mesothelin-specific CAR and KIR2DL3 was determined by staining with mesothelin-Fc followed by PE-conjugated goat-anti-human Fc and a monoclonal antibody to the KIR2DL3 ectodomain.
T cell that were generated and characterized as described in FIG. 21 were mixed with 51-Cr labeled target K562 cells that were generated and characterized as described in FIG. 22. Cytotoxicity was determined by measuring the fraction of ^51Cr released into the supernatant at 4 hours compared target cells without effector cells.

Data set [3] concerns mesothelioma-derived cells expressing mesothelin (EM-meso cells). The data set is described as follows: EM-meso subcutaneous xenograft in NSG mice, tumor volume by caliper. It counts as in vivo, mouse. Conditions: 4 million T cells i.v. day 20. As to the method:
20 days following tumor implantation, each animal was injected intravenously with 5×10^6 T cells that were stimulated with anti-CD3/anti-CD28 stimulator beads followed lentiviral transduction with a series of CD3ζ-based CAR with or without a costimulatory domain (SS1-ζ, SS1-BBζ and SS1-28ζ) or the mesothelin-specific KIR-based CARs, SS1-KIRS2 with DAP12. Mock transduced T cells (NTD) were used as a control. Tumor volume was measured by caliper at the indicated times (n=7 mice per group). […] The frequency of human CD45+ T cells was assessed at the end of the experiment by flow cytometry, and data are expressed as a percentage of total viable cells in the blood, spleen and tumor digest. […] The frequency of CD3+ human lymphocytes in tumors at day 30 (10 days following CAR T infusion) was assessed by flow cytometry. […] 4 million T cells expressing DAP12 and dsRed (DAP12), SS1-28z or SS1-KIRS2 and DAP12 (SS1-KIRS2) were injected intravenously on day 20, and tumor volume was assessed over time via caliper measurement. […] Antigen-specific cytotoxicity was assessed by coculturing with firefly luciferase expressing EM-meso cells or EMp cells (parental EM cells lacking mesothelin expression) at indicated E:T ratios for 18 hours. […]
Animal models can also be used to measure activity of a CAR-expressing cell. […] Animals are assessed for tumor progression at weekly intervals. […]

This note sets out measurements from US11981731B2, “Targeting cytotoxic cells with chimeric receptors for adoptive immunotherapy” (Novartis AG, priority 2014, dated 2024).

B1: M17: human anti-mesothelin scFv, SEQ ID NO: 246 (protein)
scFv: EVQLVESGGGLVQPGRSLRLSCAASGFTFDDYAMHWVRQAPGKGLEWVSGISWNSGSTGYADSVKGRFTISRDNAKNSLYLQMNSLRAEDTALYYCAKDSSSWYGGGSAFDIWGQGTMVTVSSGGGGSGGGGSGGGGSSSELTQDPAVSVALGQTVRITCQGDSLRSYYASWYQQKPGQAPVLVIYGKNNRPSGIPDRFSGSSSGNTASLTITGAQAEDEADYYCNSRGSSGNHYVFGTGTKVTVL
Take B1: the IL-2 production entry in data set [1] is on record as “produced IL-2”.

B2: KIR2DL3: wild-type KIR2DL3 inhibitory receptor co-expressed in T cells (SEQ ID NO: 345) (protein)
chain: MSLMVVSMVCVGFFLLQGAWPHEGVHRKPSLLAHPGPLVKSEETVILQCWSDVRFQHFLLHREGKFKDTLHLIGEHHDGVSKANFSIGPMMQDLAGTYRCYGSVTHSPYQLSAPSDPLDIVITGLYEKPSLSAQPGPTVLAGESVTLSCSSRSSYDMYHLSREGEAHERRFSAGPKVNGTFQADFPLGPATHGGTYRCFGSFRDSPYEWSNSSDPLLVSVTGNPSNSWPSPTEPSSETGNPRHLHVLIGTSVVIILFILLLFFLLHRWCCNKKNAVVMDQEPAGNRTVNREDSDEQDPQEVTYAQLNHCVFTQRKITRPSQRPKTPPTDIIVYTELPNAEP
B2: the “effect on antigen specific cytotoxicity of co-expressed KIR CAR” value in data set [2] was “can suppress antigen specific cytotoxicity”.

B3: DAP12: T cells expressing DAP12 and dsRed; DAP12 adaptor molecule, SEQ ID NO: 368 (protein)
chain: MGGLEPCSRFLLLPLLLAVSGLRPVQVQAQSDCSCSTVSPGVLAGIVMGDLVLTVLIALAVYFLGRLVPRGRGAAEAATRKQRITETESPYQELQGQRSDVYSDLNTQRPYYK
With B3, in data set [3], the “tumor eradication by DAP12-modified T cells” value was “require the mesothelin-specific KIR-based CAR for tumor eradication”.

B4: M16: human anti-mesothelin scFv, SEQ ID NO: 245 (protein)
scFv: EVQLVESGGGLVQPGRSLRLSCAASGFTFDDYAMHWVRQAPGKGLEWVSGISWNSGSTGYADSVKGRFTISRDNAKNSLYLQMNSLRAEDTALYYCAKDSSSWYGGGSAFDIWGQGTMVTVSSGGGGSGGGGSGGGGSSSELTQEPAVSVALGQTVRITCQGDSLRSYYASWYQQKPGQAPVLVIFGRSRRPSGIPDRFSGSSSGNTASLIITGAQAEDEADYYCNSRDNTANHYVFGTGTKLTVL
Regarding B4, in data set [1], the IL-2 production entry is recorded as “produced IL-2”.
